The target in experiment [1] is recombinant human ROR1 extracellular domain with a C-terminal 6xHis tag (human) (UniProt Q01973). Kind of experiment: SPR (Biacore T200): scFv-mFc captured on anti-mouse IgG chip, ROR1 ECD 6xHis injected, multi-cycle kinetics, 1:1 model. (SPR reads the build-up and loss of mass on a sensor chip optically.)
Experiment [2] has the same target. As to the kind of experiment: SPR (Biacore), scFv-mFc captured on an anti-mouse IgG chip, ROR1 ECD 6xHis injected at 183, 61.0, 20.33, 6.78 and 2.26 nM, multi-cycle kinetics, 1:1 Binding model, 25 °C.
Experiment [3] shares this target. As to the kind of experiment: SPR (Biacore), scFv-mFc captured on an anti-mouse IgG chip, ROR1 ECD 6xHis injected in a concentration series up to 183 nM, multi-cycle kinetics, 1:1 Binding model, 25 °C.
Experiment [4] concerns the target T1, human ROR2 expressed on cells of the plasma membrane protein array (human, UniProt Q01974 34-943).
T1 construct: whole, on cells; also called receptor tyrosine kinase-like orphan receptor 2
As to the kind of experiment: plasma membrane protein array: immunohistochemistry with scFv-Fc on cells overexpressing individual human membrane proteins, with confirmation screening. The procedure: (§1) Off-target binding was assessed based on a plasma membrane protein array. This chip-based platform contains over 4400 groups of cells genetically engineered to overexpress individual human extracellular membrane proteins that together represent over 75% of the human extracellular proteome. The panel also includes over 1000 tethered secreted protein targets. An scFv-Fc (scFv sequence set forth in SEQ ID NO:118) was generated and used for immunohistochemistry (IHC) against the cells in the array. Confirmation screening was performed.

Experiment [5] concerns the target T2, human ROR1 expressed on cells (human, UniProt Q01973 30-937).
T2 construct: also called hROR1; K562-ROR1-TetOn
As to the kind of experiment: plasma membrane protein array: immunohistochemistry on cells overexpressing individual human membrane proteins. Here is the method:
as §1

The source of these data is patent US20250242020A1 (JUNO THERAPEUTICS, published 2025).

As a reminder, the Kd is the free concentration of one partner at which half of the binding sites on the other are occupied at equilibrium, for simple one-to-one binding. Broadly, the koff is a measure of how fast the partners let go of each other. What is called kon is the rate constant with which the complex forms.

Sequence of recombinant human ROR1 extracellular domain with a C-terminal 6xHis tag (human) (Q01973 other isoform, or with tags, fused parts or gaps): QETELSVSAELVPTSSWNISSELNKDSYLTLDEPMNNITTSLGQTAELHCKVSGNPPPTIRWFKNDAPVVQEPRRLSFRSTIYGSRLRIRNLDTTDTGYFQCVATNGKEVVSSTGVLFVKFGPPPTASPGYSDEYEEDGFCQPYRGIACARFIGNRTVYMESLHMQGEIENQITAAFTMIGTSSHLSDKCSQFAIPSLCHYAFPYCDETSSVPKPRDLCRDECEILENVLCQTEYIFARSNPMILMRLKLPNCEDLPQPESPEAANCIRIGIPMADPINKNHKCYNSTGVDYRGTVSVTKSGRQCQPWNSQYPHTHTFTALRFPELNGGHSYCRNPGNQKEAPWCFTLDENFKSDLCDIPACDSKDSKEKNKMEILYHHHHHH
T2 sequence (Q01973 30-937): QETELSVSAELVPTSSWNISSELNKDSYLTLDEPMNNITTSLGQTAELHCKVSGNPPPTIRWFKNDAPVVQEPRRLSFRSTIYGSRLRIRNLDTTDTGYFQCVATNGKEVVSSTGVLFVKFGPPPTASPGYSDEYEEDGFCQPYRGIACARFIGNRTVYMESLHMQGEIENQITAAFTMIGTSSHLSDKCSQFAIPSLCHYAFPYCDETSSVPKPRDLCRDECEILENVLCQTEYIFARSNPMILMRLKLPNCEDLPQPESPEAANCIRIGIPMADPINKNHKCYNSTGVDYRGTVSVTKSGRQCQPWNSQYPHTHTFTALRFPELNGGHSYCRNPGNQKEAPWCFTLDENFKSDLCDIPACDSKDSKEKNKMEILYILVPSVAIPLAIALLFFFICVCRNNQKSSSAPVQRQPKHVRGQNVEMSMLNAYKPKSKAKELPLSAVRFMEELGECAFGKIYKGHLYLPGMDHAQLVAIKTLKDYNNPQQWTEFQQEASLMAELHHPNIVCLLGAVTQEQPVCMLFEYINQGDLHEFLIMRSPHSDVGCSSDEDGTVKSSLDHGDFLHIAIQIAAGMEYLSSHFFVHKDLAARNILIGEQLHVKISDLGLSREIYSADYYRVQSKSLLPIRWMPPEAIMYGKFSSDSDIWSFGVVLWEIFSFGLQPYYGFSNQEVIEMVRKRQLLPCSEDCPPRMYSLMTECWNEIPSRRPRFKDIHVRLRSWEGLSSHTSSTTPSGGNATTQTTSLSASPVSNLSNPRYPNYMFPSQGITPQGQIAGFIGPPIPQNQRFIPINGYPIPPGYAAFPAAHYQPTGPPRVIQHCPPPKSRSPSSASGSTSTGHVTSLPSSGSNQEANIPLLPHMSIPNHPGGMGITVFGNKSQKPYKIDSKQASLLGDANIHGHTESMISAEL
T1 sequence (Q01974 34-943): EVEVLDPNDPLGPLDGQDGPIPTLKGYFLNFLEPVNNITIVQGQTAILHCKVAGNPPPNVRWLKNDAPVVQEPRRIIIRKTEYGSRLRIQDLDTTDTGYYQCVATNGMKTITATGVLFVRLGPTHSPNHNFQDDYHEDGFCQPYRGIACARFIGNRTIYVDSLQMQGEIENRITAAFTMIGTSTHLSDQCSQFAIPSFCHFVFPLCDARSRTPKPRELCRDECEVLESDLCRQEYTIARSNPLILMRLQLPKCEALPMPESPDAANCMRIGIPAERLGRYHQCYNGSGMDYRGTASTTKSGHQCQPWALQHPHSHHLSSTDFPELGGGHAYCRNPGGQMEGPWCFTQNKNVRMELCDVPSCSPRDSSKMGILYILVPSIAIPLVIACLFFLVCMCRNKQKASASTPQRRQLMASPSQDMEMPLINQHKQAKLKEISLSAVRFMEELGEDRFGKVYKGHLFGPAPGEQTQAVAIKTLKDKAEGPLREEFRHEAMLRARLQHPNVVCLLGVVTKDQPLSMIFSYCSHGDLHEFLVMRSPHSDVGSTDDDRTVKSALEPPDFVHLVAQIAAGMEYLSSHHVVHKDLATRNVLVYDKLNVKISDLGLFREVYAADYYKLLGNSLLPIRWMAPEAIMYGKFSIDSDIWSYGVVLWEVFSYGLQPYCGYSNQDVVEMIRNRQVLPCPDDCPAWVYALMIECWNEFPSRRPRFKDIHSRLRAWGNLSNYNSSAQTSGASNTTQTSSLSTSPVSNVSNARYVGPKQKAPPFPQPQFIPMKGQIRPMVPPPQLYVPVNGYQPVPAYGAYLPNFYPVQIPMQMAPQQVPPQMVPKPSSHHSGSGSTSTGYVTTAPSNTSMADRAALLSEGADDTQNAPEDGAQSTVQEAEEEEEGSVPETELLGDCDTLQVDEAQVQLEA

B1: anti-ROR1 scFv ROR1-2 fused to murine IgG2a Fc (scFv-mFc) (Fc fusion, part only; not given: murine IgG2a Fc and junction, not shown: another chain or arm of the molecule; a dimerising Fc or GST)
scFv: QLQLQESGPGLVKPSETLSLTCTVSGGSINSTTSYWAWIRQPPGKGLEWIGTIFYSGKTYNNPSLKSRVTMSVDTSKNHFSLKVNSVTAADTAVYYCARFDYGFHDAFDIWGQGTMVTVSSGGGGSGGGGSGGGGSEIVMTQSPATLSLSPGERATLSCRASQSITSDYLSWYQQKPGQAPRLLIYGASTRATGIPARFSGSGSGTDFTLTISSLQPEDFVVYYCQQDYNLYTFGQGTKLEIKR
Regarding B1, in experiment [1], the dissociation constant (Kd) came out at 0.0957 nM, the koff was found to be 3.94e-05 s⁻¹ and the kon came to 412000 M⁻¹ s⁻¹. Besides, in experiment [2], the Kd was found to be 0.0956 nM, the koff was found to be 3.94e-05 s⁻¹ and the kon is 412000 M⁻¹ s⁻¹.

B2: anti-ROR1 scFv ROR1-3 fused to murine IgG2a Fc (scFv-mFc) (Fc fusion, part only; not given: murine IgG2a Fc and junction, not shown: another chain or arm of the molecule; a dimerising Fc or GST)
scFv: QVQLVQSGAEVKKPGASVKVSCKASGYTFTSYGISWVRQAPGQGLEWMGWISAYNGNTKYAQKLQGRVTMTTDTSTSTAYMELRSLRSDDTAVYYCARDEDILTGYNYYGMDVWGQGTTVTVSSGGGGSGGGGSGGGGSQLVLTQSPSASASLGASVKLTCTLSSGHSSYAIAWHQQQPEKGPRYLMKLNSDGSHSKGDGIPDRFSGSSSGAERYLTISSLQSEDEADYYCQTWGTGIRVFGGGTKLTVLG
For the molecule B2, in experiment [1], the Kd was 0.924 nM, the koff is 1.08e-05 s⁻¹ and the on-rate (kon) turned out to be 11700 M⁻¹ s⁻¹. Also, in experiment [2], the dissociation constant (Kd) turned out to be 0.924 nM, the koff came to 1.08e-05 s⁻¹ and the on-rate constant (kon) was found to be 11700 M⁻¹ s⁻¹.

B3: anti-ROR1 scFv ROR1-4 fused to murine IgG2a Fc (scFv-mFc) (Fc fusion, part only; not given: murine IgG2a Fc and junction, not shown: another chain or arm of the molecule; a dimerising Fc or GST)
scFv: QVQLLQSGAEVKKPGASVKVSCKASGYTFTSYGISWVRQAPGQGLEWMGWISAYTGNTRYAQKLQGRVTMTTDTSTSTAYMELRSLRSDDTAVYYCAREEGATTDYDYYGMDVWGQGTAVTVSSGGGGSGGGGSGGGGSQLVLTQSPSASASLGASVKLTCTLSSGHSSYAIAWHQQQPEKGPRYLMKLNSDGSHSKGDGIPDRFSGSSSGAERYLTISSLQSEDEADYYCQTWGTGIRVFGGGTKLTVLG
Take B3: in experiment [1], the Kd was 13.8 nM, the koff worked out at 0.00022 s⁻¹ and the on-rate constant (kon) was 16000 M⁻¹ s⁻¹. Also, in experiment [2], the dissociation constant (Kd) worked out at 13.8 nM, the koff worked out at 0.00022 s⁻¹ and the kon came to 16000 M⁻¹ s⁻¹.

B4: reference R12 scFv fused to murine IgG2a Fc (scFv-mFc) (Fc fusion, part only; not given: murine IgG2a Fc and junction, not shown: another chain or arm of the molecule; a dimerising Fc or GST)
scFv: QEQLVESGGRLVTPGGSLTLSCKASGFDFSAYYMSWVRQAPGKGLEWIATIYPSSGKTYYATWVNGRFTISSDNAQNTVDLQMNSLTAADRATYFCARDSYADDGALFNIWGPGTLVTISSGGGGSGGGGSGGGGSELVLTQSPSVSAALGSPAKITCTLSSAHKTDTIDWYQQLQGEAPRYLMQVQSDGSYTKRPGVPDRFSGSSSGADRYLIIPSVQADDEADYYCGADYIGGYVFGGGTQLTVTG
As to B4, in experiment [1], the Kd stood at 0.942 nM, the koff stood at 0.000579 s⁻¹ and the association rate constant (kon) was 614000 M⁻¹ s⁻¹. Further, in experiment [3], the Kd was 0.942 nM, the koff was found to be 0.000579 s⁻¹ and the association rate constant (kon) was 614000 M⁻¹ s⁻¹.

B5: anti-ROR1 scFv ROR1-1 fused to murine IgG2a Fc (scFv-mFc) (Fc fusion, part only; not given: murine IgG2a Fc and junction, not shown: another chain or arm of the molecule; a dimerising Fc or GST)
scFv: QVQLQESGPGLVKPSETLSLTCTVSGGSISNYYWSWIRQPAGKGLEWIGRIYTSGSTNYNPSLKSRVTMSVDTSKNQFSLKLSSLTAADTAIYYCARYYDILTGFFDYWGQGTLVTVSSGGGGSGGGGSGGGGSVIWMTQSPSLLSASTGDSVTISCRMSQDISSYLAWYQQKPGKAPELLIYAASSLQSGVPSRFSGSGSGTDFTLTISSLQSEDFATYYCQQYDSFPPTFGQGTKVEFKR
For B5, in experiment [1], the equilibrium dissociation constant (Kd) amounted to 42 nM, the dissociation rate constant (koff) worked out at 0.005 s⁻¹ and the kon worked out at 119000 M⁻¹ s⁻¹. For the same molecule, in experiment [2], the equilibrium dissociation constant (Kd) worked out at 42 nM, the koff is 0.005 s⁻¹ and the kon worked out at 119000 M⁻¹ s⁻¹.

B6: scFv-Fc of the binding domain of anti-ROR1 CAR-F (scFv SEQ ID NO:118), used on the plasma membrane protein array (Fc fusion)
chain: QVQLQESGPGLVKPSETLSLTCTVSGGSISNYYWSWIRQPAGKGLEWIGRIYTSGSTNYNPSLKSRVTMSVDTSKNQFSLKLSSLTAADTAIYYCARYYDILTGFFDYWGQGTLVTVSSGGGGSGGGGSGGGGSVIWMTQSPSLLSASTGDSVTISCRMSQDISSYLAWYQQKPGKAPELLIYAASSLQSGVPSRFSGSGSGTDFTLTISSLQSEDFATYYCQQYDSFPPTFGQGTKVEFKR
notes: also called the scFv; not shown: Fc
On to B6, for which the binding result was “no binding” in experiment [4] and “binds” in experiment [5].
